Source: publication PMC4576865 (The Journal of Cell Biology, 2015)

Molecular target: the molecule itself
Assay: native gel or EMSA

B1: Ugo1 precursor, 35S-labeled (natural protein, S. cerevisiae, UniProt Q03327 1-502, looked up)
chain: MNNNNVTEATSRAQIRPYYDPDSFNAGYSAVFKPDEGVVDPHGYTIASKLNVINSSPTTKRMANALFKSSPMKKLSNSVNDGLSLEGSNGEITGLNNFEWAELVNIQKWRKIFEQLLDMFFRKYFQLLIQQPFDVARLLIQVGEFKIFKTTVDTNKPQAPIILRDEEGDGAAREGEEDAYDEEEIDFFPIERKIAEANSTAPIMAEETDHSHHEPTDISLTIAPQSLHTIDVINALFDQEGIRGLWKANNTTFIYNFLSLSIDTWFTGLLSSFLGVPDPYFMEVINSPDISKSFILALGAGVFTSIILLPVDLIRTRLIVTSFKKKKNVKTDGKNMVTNTRSLRQLIRCWSWRKNGVSIPLDMWSLTILQSINNSFFNKLFDLVIYNQFHIEKYSQTVMYNTMKFFSKSLELFIKLPLENLLRRCQLNYLLNDQRLSFKVDSTELIVKPKKYNGIWDVIRNNSNTNRGQLWNGWKVGVISLICGYGLQMMNKVDINMEQEKF
modifications: [35S]methionine
stoichiometry N: 2
